From patent publication US20130344055A1, “ANTIMICROBIAL AGENTS” (priority 2010, published 2013) come the findings set out here.

Assay [1] relates to P. aeruginosa PAO1p cells. As to the kind of experiment: Antimicrobial activity of different peptide stretches. To be noted: 30 minutes at room temperature; for Antimicrobial effects against P. aeruginosa (relative inactivation): peptide at 3 μM/L (equimolar to AMP).
Protocol: The bacteria colonies on the agar plates were counted after an overnight incubation at 37° C. Based on the counted cell numbers the antibacterial activity as the relative inactivation in logarithmic units (=log 10N0/Ni with N0=number of untreated cells (of the control) and Ni=number of treated cells, both counted after incubation) is calculated. The reduction in the number of bacteria colonies after treatment with a peptide stretch is indicative for an antimicrobial activity of the peptide stretch, because the bacterial cells are lysed due to the treatment with the peptide stretch. All samples were replicated in four fold.
Assay [2] concerns Salmonella bacteria. Kind of assay: In vitro antibacterial activity of STM0016 fusion variants. The format is cell-based. To be noted: with EDTA 0.5 mM; 10^6 cells/ml; 30 minutes at RT. Here is the method: Exponential growing Gram-negative bacterial cells (OD600 nm=0.6) were 100-fold diluted to a final density of about 10^6 cells/ml in 5 mM HEPES pH 7.4 and incubated for 30 minutes at room temperature without shaking with the different modified OBPgpLYS variants (in Elution Buffer in an end concentration of 1500 nM). After incubation cell suspensions and as a control untreated bacterial cells without any added modified OBPgpLYS variant were diluted three times (respectively 10^5-10^4-10^3 cells/ml) in 1× concentrated PBS buffer and 100 μl of each dilution was plated out on LB-medium. […] All samples were replicated in threefold. Averages +/− standard deviations are represented.
The purification of the fusion proteins and the antimicrobial activity assay was performed as described in Example 1.

Assay [3] concerns Listeria bacteria. Kind of assay: In vitro antibacterial activity of Ply511 fusion variants. The class given is cell-based. To be noted: with EDTA 0.5 mM; 10^6 cells/ml; 30 minutes at RT.
In assay [4] the test system is Streptococcus bacteria. As to the kind of experiment: In vitro antibacterial activity of Cpl1 fusion variants. The class given is cell-based. The note with it: with EDTA 0.5 mM; 10^6 cells/ml; 30 minutes at RT.

Take “PK2: polycationic peptide KRKKRKKRKRSKRKKRKKRK”: in assay [1], the “Antimicrobial activity against P. aeruginosa (relative inactivation)” value was “same antimicrobial activity against P. aeruginosa as SMAP-29 used in a concentration of 3 mmol/L” and the “Antimicrobial effects against P. aeruginosa (relative inactivation)” value is “no or only minor antimicrobial effects”.

Take PK: polycationic peptide KRKKRKKRK: the “Antimicrobial effects against P. aeruginosa (relative inactivation)” value in assay [1] was “no or only minor antimicrobial effects”.

Consider “STM0016-Melittin: STM0016 fusion variant with one peptide stretch, Melittin”, for which, in assay [2], the “Average log reduction, Salmonella” value was “+/− (+/−: <1 log)”.

B1: P1y511-BuforinII-Magainin: Ply511 with Buforin II C-terminal of the enzyme, followed by Magainin (protein)
chain: MVKYTVENKIIAGLPKGKLKGANFVIAHETANSKSTIDNEVSYMTRNWKNAFVTHFVGGGGRVVQVANVNYVSWGAGQYANSYSYAQVELCRTSNATTFKKDYEVYCQLLVDLAKKAGIPITLDSGSKTSDKGIKSHKWVADKLGGTTHQDPYAYLSSWGISKAQFASDLAKVSGGGNTGTAPAKPSTPAPKPSTPSTNLDKLGLVDYMNAKKMDSSYSNRDKLAKQYGIANYSGTASQNTTLLSKIKGGAPKPSTPAPKPSTSTAKKIYFPPNKGNWSVYPTNKAPVKANAIGAINPTKFGGLTYTIQKDRGNGVYEIQTDQFGRVQVYGAPSTGAVIKKTRSSRAGLQFPVGRVHRLLRKGIGKFLHSAKKFGKAFVGEIMNS
In the case of B1, the “Average log reduction, Listeria” value in assay [3] was “+++ (+++: 4 or more logs)”.

B2: Cpl1-Pseudin1-Indolicidin: Cpl1 with Pseudin1 C-terminal of the enzyme, followed by Indolicidin (protein)
chain: MVKKNDLFVDVSSHNGYDITGILEQMGTTNTIIKISESTTYLNPCLSAQVEQSNPIGFYHFARFGGDVAEAEREAQFFLDNVPMQVKYLVLDYEDDPSGDAQANTNACLRFMQMIADAGYKPIYYSYKPFTHDNVDYQQILAQFPNSLWIAGYGLNDGTANFEYFPSMDGIRWWQYSSNPFDKNIVLLDDEEDDKPKTAGTWKQDSKGWWFRRNNGSFPYNKWEKIGGVWYYFDSKGYCLTSEWLKDNEKWYYLKDNGAMATGWVLVGSEWYYMDDSGAMVTGWVKYKNNWYYMTNERGNMVSNEFIKSGKGWYFMNTNGELADNPSFTKEPDGLITVAGLNTLKKVFQGLHEAIKLINNHVQILPWKWPWWPWRR
Consider B2, for which the “Average log reduction, Streptococcus” value in assay [4] is “+++ (+++: 4 or more logs)”.

B3: P1y511-BuforinII: Ply511 fusion variant with one peptide stretch, Buforin II (protein)
chain: MVKYTVENKIIAGLPKGKLKGANFVIAHETANSKSTIDNEVSYMTRNWKNAFVTHFVGGGGRVVQVANVNYVSWGAGQYANSYSYAQVELCRTSNATTFKKDYEVYCQLLVDLAKKAGIPITLDSGSKTSDKGIKSHKWVADKLGGTTHQDPYAYLSSWGISKAQFASDLAKVSGGGNTGTAPAKPSTPAPKPSTPSTNLDKLGLVDYMNAKKMDSSYSNRDKLAKQYGIANYSGTASQNTTLLSKIKGGAPKPSTPAPKPSTSTAKKIYFPPNKGNWSVYPTNKAPVKANAIGAINPTKFGGLTYTIQKDRGNGVYEIQTDQFGRVQVYGAPSTGAVIKKTRSSRAGLQFPVGRVHRLLRK
On to B3, for which, in assay [3], the “Average log reduction, Listeria” value was “++ (++: 2-3 log)”.

B4: Cpl1-Pseudin1: Cpl1 fusion variant with one peptide stretch, Pseudin1 (protein)
chain: MVKKNDLFVDVSSHNGYDITGILEQMGTTNTIIKISESTTYLNPCLSAQVEQSNPIGFYHFARFGGDVAEAEREAQFFLDNVPMQVKYLVLDYEDDPSGDAQANTNACLRFMQMIADAGYKPIYYSYKPFTHDNVDYQQILAQFPNSLWIAGYGLNDGTANFEYFPSMDGIRWWQYSSNPFDKNIVLLDDEEDDKPKTAGTWKQDSKGWWFRRNNGSFPYNKWEKIGGVWYYFDSKGYCLTSEWLKDNEKWYYLKDNGAMATGWVLVGSEWYYMDDSGAMVTGWVKYKNNWYYMTNERGNMVSNEFIKSGKGWYFMNTNGELADNPSFTKEPDGLITVAGLNTLKKVFQGLHEAIKLINNHVQ
For B4, the “Average log reduction, Streptococcus” value in assay [4] is given as “++ (++: 2-3 log)”.

B5: P1y511: endolysin Ply511 (protein)
chain: MVKYTVENKIIAGLPKGKLKGANFVIAHETANSKSTIDNEVSYMTRNWKNAFVTHFVGGGGRVVQVANVNYVSWGAGQYANSYSYAQVELCRTSNATTFKKDYEVYCQLLVDLAKKAGIPITLDSGSKTSDKGIKSHKWVADKLGGTTHQDPYAYLSSWGISKAQFASDLAKVSGGGNTGTAPAKPSTPAPKPSTPSTNLDKLGLVDYMNAKKMDSSYSNRDKLAKQYGIANYSGTASQNTTLLSKIKGGAPKPSTPAPKPSTSTAKKIYFPPNKGNWSVYPTNKAPVKANAIGAINPTKFGGLTYTIQKDRGNGVYEIQTDQFGRVQVYGAPSTGAVIKK
modifications: Listeria monocytogenes Phage A511
notes: endolysin Ply511
As to B5, the “Average log reduction, Listeria” value in assay [3] is “+ (+: 1 log)”.

B6: Cpl1-Indolicidin: Cpl1 fusion variant with one peptide stretch, Indolicidin (protein)
chain: MVKKNDLFVDVSSHNGYDITGILEQMGTTNTIIKISESTTYLNPCLSAQVEQSNPIGFYHFARFGGDVAEAEREAQFFLDNVPMQVKYLVLDYEDDPSGDAQANTNACLRFMQMIADAGYKPIYYSYKPFTHDNVDYQQILAQFPNSLWIAGYGLNDGTANFEYFPSMDGIRWWQYSSNPFDKNIVLLDDEEDDKPKTAGTWKQDSKGWWFRRNNGSFPYNKWEKIGGVWYYFDSKGYCLTSEWLKDNEKWYYLKDNGAMATGWVLVGSEWYYMDDSGAMVTGWVKYKNNWYYMTNERGNMVSNEFIKSGKGWYFMNTNGELADNPSFTKEPDGLITVAILPWKWPWWPWRR
For B6, the “Average log reduction, Streptococcus” value in assay [4] is “++ (++: 2-3 log)”.

B7: STM0016-LL37: STM0016 fusion variant with one peptide stretch, LL37 (protein)
chain: MNPIIDGIIALEGGYVFNPKDKGGATHWGITEATARAHGYAGDMRDLTHAEAYAILEEDYWIKPGFDVISTLSWPVSFELCDAAVNIGAYHPSAWLQRWLNVFNHEGKRYPDIHVDGNIGPRTLAALEHYLAWRGQEGEAVLVKALNCSQGTYYLNVAEKNHNNEQFIYGWIKNRVTLLGDFFRKSKEKIGKEFKRIVQRIKDFLRNLVPRTES
For the molecule B7, the “Average log reduction, Salmonella” value in assay [2] is “+ (+: 1 log)”.

B8: P1y511-Magainin: Ply511 fusion variant with one peptide stretch, Magainin (protein)
chain: MVKYTVENKIIAGLPKGKLKGANFVIAHETANSKSTIDNEVSYMTRNWKNAFVTHFVGGGGRVVQVANVNYVSWGAGQYANSYSYAQVELCRTSNATTFKKDYEVYCQLLVDLAKKAGIPITLDSGSKTSDKGIKSHKWVADKLGGTTHQDPYAYLSSWGISKAQFASDLAKVSGGGNTGTAPAKPSTPAPKPSTPSTNLDKLGLVDYMNAKKMDSSYSNRDKLAKQYGIANYSGTASQNTTLLSKIKGGAPKPSTPAPKPSTSTAKKIYFPPNKGNWSVYPTNKAPVKANAIGAINPTKFGGLTYTIQKDRGNGVYEIQTDQFGRVQVYGAPSTGAVIKKGIGKFLHSAKKFGKAFVGEIMNS
Turning to B8, the “Average log reduction, Listeria” value in assay [3] was “++ (++: 2-3 log)”.
